In the assay the target is Netrin-1-FlagM2 (recombinant netrin-1, Apotech). The assay is described as follows: ELISA: DCC-5Fbn 100 ng coated, netrin-1 0 to 800 ng, IL3-R values subtracted. On the technique in general: In an ELISA, binding on a coated surface is turned into a signal by an enzyme label.

As to “DCC-5Fbn (recombinant soluble fifth fibronectin type III domain of DCC) (from UniProt P43146 846-942) (receptor)”, the Kd worked out at 5 nM.

Broadly, the Kd is the constant that tells how readily two partners part at equilibrium.

The values are drawn from patent publication US20090226458A1.
